# Experimental data as given in the RNAGym collection of RNA variant scans (doi:10.7554/elife.80360).
# B1: CPEB3 Ribozyme (parent)
# chain: GGGGGCCACAGCAGAAGCGUUCACGUCGCGGCCCCUGUCAGAUUCUGGUGAAUCUGCGAAUUCUGCUGU
# Variants of: B1
# Experiment: self-cleavage, relative activity (ratio to wild type); higher = more cleavage; co-transcriptional
row,Variant,self-cleavage
1,G5U G14C,0.0568
2,G5C C35G,0.121
3,G5C C35U,0.162
4,G5A A42C,0.505
5,G5A A40U,0.719
6,G5U U62G,0.103
7,G5U U62C,0.143
8,C6G C39A,0.173
9,C6G C39U,0.168
10,C6A A52C,0.519
11,C6A G48U,0.776
12,C6A G48A,0.712
13,G5C A13G,0.273
14,G5C A13C,0.17
15,G5C A13U,0.172
16,G5A A59U,0.415
17,G5U A40G,0.171
18,G5U A40U,0.132
19,G5U U55C,0.147
20,G4U U38G,0.114
21,G5U C33A,0.0802
22,G5U C33U,0.121
23,G5U C33G,0.0433
24,G5U G31U,0.0958

row,Variant,self-cleavage
1,G5U A52C,0.176
2,C6A C35G,0.134
3,C6A C35U,0.27
4,C6A U20G,0.161
5,C6A U67G,0.835
6,G4U C29U,0.192
7,G4U U26C,0.641
8,G4U U26A,0.282
9,C6G G25A,0.0449
10,G5C U49A,0.287
11,G5C U49C,0.282
12,G5C U49G,0.282
13,G5C C57U,0.0922
14,G5A C6G,0.0495
15,G4U C33G,1
16,G4U G30A,0.142
17,C6G G11U,0.185
18,C6G G11A,0.177
19,G5A C63G,0.448
20,G5U C27A,0.116
21,G4U C39G,0.558
22,G4U C39U,0.376
23,C6A U26C,0.333
24,G4U U49A,0.821

row,Variant,self-cleavage
1,G4U U49C,0.758
2,G5U A8U,0.151
3,G5U A16C,0.042
4,C6G A16G,0.127
5,C6A A15U,0.176
6,C6A A15G,0.467
7,G5C C27G,0.0907
8,G5C C27A,0.109
9,G5C A40U,0.134
10,G5U C35U,0.0952
11,G5U C35A,0.0833
12,G5A U53C,0.584
13,G5A U53A,0.74
14,G5U U21G,0.0935
15,G5A C18A,0.12
16,G5U C54A,0.104
17,G5U C54G,0.106
18,G5C U69C,0.568
19,C6G G14U,0.121
20,G5U C9G,0.772
21,C6G C35G,0.0784
22,G5A U62A,0.492
23,G5A U62G,0.447
24,C6G A8G,0.358

row,Variant,self-cleavage
1,G5U C24A,0.105
2,C6A G50A,0.708
3,C6A C63G,0.205
4,C6A C63U,0.505
5,G5C C33U,0.468
6,G4U U43C,0.462
7,C6G C9U,0.489
8,G5A G19U,0.197
9,C6G A42G,0.324
10,G5A C12U,0.931
11,G5A C32G,0.847
12,G5A C32U,0.992
13,G4U G65U,0.254
14,G4U G65C,0.411
15,C6G C57G,0.0373
16,C6A G30C,0.209
17,G5C U53C,0.151
18,G5C U53A,0.175
19,G5C U53G,0.212
20,G5C A59U,0.14
21,G5C A59C,0.135
22,G5C G56U,0.131
23,G5C G56C,0.166
24,G5C C6A,0.0948

row,Variant,self-cleavage
1,G5C C6U,0.158
2,G5U C29U,0.103
3,C6G A13U,0.123
4,C6G A13C,0.163
5,G4U G37U,0.128
6,C6G C7G,0.0901
7,C6G C7A,0.0493
8,C6A U62A,0.175
9,C6A U62G,0.211
10,G4U G5A,0.0691
11,G4U G5C,0.105
12,C6G G28A,0.0625
13,C6G G28C,0.0369
14,G5U U43C,0.133
15,G5U U43A,0.111
16,G5C U62C,0.141
17,G5C U62G,0.179
18,C6A A8G,0.53
19,G5U C22A,0.0283
20,G5U C22U,0.0607
21,G5C A15C,0.113
22,G5C A15U,0.15
23,G5C A15G,0.3
24,G5A G50U,0.906

row,Variant,self-cleavage
1,G4U G14A,0.257
2,G5U U49G,0.171
3,G5U U61G,0.0827
4,G5U C34U,0.111
5,G5C U26C,0.109
6,C6A A42U,0.374
7,C6A C54G,0.246
8,C6A C54A,0.282
9,C6A U43C,0.412
10,C6A U43A,0.294
11,C6A C45A,0.523
12,G5C C22A,0.107
13,G5A A16C,0.134
14,G5U A13C,0.0841
15,C6G A15G,0.212
16,C6G A15U,0.128
17,C6A G11C,0.29
18,G5U C18U,0.063
19,G5A G48C,0.956
20,G5A G48U,0.939
21,C6A C12U,0.581
22,C6G C66G,0.311
23,G4U G50C,0.764
24,G4U G50U,0.817

row,Variant,self-cleavage
1,G5U G50A,0.309
2,G5U G41A,0.12
3,G5A A13G,0.88
4,G5A A13U,0.642
5,C6G A52U,0.254
6,G5A C33U,0.568
7,G5A U21G,0.161
8,G5C U44A,0.24
9,G5C U44G,0.203
10,G5U G58C,0.2
11,G5U G58A,0.172
12,G5U G58U,0.37
13,C6A G58C,0.567
14,G5A G17A,0.166
15,G5A G17C,0.0889
16,G5C G58C,0.293
17,G5C G58A,0.198
18,G5U G37A,0.11
19,G5C A10U,0.341
20,G5A C22A,0.134
21,G5C G50U,0.243
22,G5C C45A,0.283
23,G5A A23C,0.766
